Measurements as given in publication PMC9482650, “Quantitative fragmentomics allow affinity mapping of interactomes” (Nature Communications, 2022).

Key:
Experiment in all cases: holdup assay
Parameters in all cases: key: below the threshold = too weak to quantify, mostly under pKd 3.1 to 4
[1] = biological target: T1, NHERF3_1, Q5T2W1
T1 sequence (Q5T2W1 4-100, limits assumed, looked up): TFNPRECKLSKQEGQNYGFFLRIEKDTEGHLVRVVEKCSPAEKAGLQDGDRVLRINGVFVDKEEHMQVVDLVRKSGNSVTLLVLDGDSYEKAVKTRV

[2] = biological target: DLG1_3, Q12959
[3] = biological target: DLG1_1, Q12959
[4] = biological target: Inadl_5, Q8NI35
Chain of Inadl_5, Q8NI35 (Q8NI35 673-780): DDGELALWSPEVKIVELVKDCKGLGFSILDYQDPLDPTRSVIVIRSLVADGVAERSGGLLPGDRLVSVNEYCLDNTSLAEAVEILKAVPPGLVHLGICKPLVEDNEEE

[5] = biological target: T2, APBA3_1, O96018
T2 sequence (O96018 389-490, limits assumed, looked up): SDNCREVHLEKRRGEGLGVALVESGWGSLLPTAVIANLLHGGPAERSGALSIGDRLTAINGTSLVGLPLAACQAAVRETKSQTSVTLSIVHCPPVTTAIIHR

[6] = biological target: T3, SNTA1, Q13424
T3 sequence (Q13424 82-180, limits assumed, looked up): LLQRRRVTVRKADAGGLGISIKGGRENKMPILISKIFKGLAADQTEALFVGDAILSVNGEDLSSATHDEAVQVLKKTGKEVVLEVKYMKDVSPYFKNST

[7] = biological target: T4, MPDZ_12, O75970
T4 sequence (O75970 1857-1958, limits assumed, looked up): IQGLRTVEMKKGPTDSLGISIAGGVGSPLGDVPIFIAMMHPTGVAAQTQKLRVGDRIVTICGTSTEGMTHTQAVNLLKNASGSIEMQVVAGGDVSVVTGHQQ

[8] = biological target: MAGI1_2, Q96QZ7
Chain of MAGI1_2, Q96QZ7 (Q96QZ7 456-580): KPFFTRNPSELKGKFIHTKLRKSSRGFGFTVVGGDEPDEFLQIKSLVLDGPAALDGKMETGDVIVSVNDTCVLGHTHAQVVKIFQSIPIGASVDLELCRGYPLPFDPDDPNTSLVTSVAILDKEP

[9] = biological target: T5, SYNJ2BP, P57105
T5 sequence (P57105 8-110, limits assumed, looked up): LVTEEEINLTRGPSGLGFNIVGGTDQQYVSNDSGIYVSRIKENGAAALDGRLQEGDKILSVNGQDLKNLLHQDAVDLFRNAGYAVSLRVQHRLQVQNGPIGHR

[10] = biological target: T6, DFNB31_2, Q9P202
T6 sequence (Q9P202 274-371, limits assumed, looked up): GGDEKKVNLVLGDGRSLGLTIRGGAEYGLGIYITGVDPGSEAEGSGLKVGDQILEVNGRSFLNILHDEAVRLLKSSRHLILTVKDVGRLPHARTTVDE

[11] = biological target: CASK, O14936
Chain of CASK, O14936 (O14936 487-570): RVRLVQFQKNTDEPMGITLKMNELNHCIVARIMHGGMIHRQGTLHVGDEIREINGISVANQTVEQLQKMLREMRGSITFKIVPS

[12] = biological target: MAGI2_4, Q86UL8
Chain of MAGI2_4, Q86UL8 (Q86UL8 772-865): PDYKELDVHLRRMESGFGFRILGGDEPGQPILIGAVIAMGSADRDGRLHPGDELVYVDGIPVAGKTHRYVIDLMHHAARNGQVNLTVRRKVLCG

[13] = biological target: T7, APBA2_1, Q99767
T7 sequence (Q99767 563-664, limits assumed, looked up): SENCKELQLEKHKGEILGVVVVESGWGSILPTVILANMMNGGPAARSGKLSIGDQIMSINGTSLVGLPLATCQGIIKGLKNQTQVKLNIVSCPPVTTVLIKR

[14] = biological target: T8, GRIP1_7, Q9Y3R0
T8 sequence (Q9Y3R0 999-1096, limits assumed, looked up): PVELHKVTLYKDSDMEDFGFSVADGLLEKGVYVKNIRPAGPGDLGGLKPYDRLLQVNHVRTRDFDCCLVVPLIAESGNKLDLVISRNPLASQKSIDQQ

[15] = biological target: T9, RHPN1, Q8TCX5
T9 sequence (Q8TCX5 508-602, limits assumed, looked up): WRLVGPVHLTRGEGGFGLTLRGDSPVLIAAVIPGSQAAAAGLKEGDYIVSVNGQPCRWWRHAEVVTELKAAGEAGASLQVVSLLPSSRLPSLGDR

[16] = biological target: T10, PTPN13_1, Q12923
T10 sequence (Q12923 1088-1188, limits assumed, looked up): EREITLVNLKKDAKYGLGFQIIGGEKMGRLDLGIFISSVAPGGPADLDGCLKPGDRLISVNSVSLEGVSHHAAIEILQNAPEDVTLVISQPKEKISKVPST

[17] = biological target: NHERF4_4, Q86UT5
Chain of NHERF4_4, Q86UT5 (Q86UT5 464-550): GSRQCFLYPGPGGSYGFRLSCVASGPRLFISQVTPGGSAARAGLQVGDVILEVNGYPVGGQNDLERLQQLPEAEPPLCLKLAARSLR

[18] = biological target: T11, LRRC7, Q96NW7
T11 sequence (Q96NW7 1440-1537, limits assumed, looked up): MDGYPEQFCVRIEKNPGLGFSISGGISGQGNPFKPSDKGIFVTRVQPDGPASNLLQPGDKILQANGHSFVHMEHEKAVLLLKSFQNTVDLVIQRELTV

[19] = biological target: GRIP2_7, Q9C0E4
Chain of GRIP2_7, Q9C0E4 (Q9C0E4 934-1023): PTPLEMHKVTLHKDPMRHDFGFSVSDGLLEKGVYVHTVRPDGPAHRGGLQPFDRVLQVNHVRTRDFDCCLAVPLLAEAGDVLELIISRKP

[20] = biological target: T12, MPDZ_10, O75970
T12 sequence (O75970 1624-1722, limits assumed, looked up): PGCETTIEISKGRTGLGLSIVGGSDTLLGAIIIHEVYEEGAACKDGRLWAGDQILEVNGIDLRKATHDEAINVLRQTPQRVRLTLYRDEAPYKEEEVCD

[21] = biological target: DLG1_2, Q12959
[22] = biological target: LNX1_3, Q8TBB1
Chain of LNX1_3, Q8TBB1 (Q8TBB1 500-596): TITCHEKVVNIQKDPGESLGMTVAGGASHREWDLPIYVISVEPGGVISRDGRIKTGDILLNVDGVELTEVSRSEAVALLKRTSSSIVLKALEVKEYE

[23] = biological target: MAGI2_2, Q86UL8
Chain of MAGI2_2, Q86UL8 (Q86UL8 410-522): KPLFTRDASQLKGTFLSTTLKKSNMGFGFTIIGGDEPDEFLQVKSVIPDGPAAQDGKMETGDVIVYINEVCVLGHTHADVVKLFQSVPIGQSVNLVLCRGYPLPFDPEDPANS

[24] = biological target: T13, TJP3_3, O95049
T13 sequence (O95049 375-456, limits assumed, looked up): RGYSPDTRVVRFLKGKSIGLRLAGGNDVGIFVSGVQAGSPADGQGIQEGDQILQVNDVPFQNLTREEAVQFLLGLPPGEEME

[25] = biological target: PDZRN4_1, Q6ZMN7
Chain of PDZRN4_1, Q6ZMN7 (Q6ZMN7 213-318): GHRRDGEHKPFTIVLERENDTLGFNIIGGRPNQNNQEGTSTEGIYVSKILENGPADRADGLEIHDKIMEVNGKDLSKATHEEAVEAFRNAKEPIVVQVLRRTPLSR

[26] = modified: phospho on T at position -2 from the C-terminal residue
[27] = plain residues with an end cap or a label only (N-terminal biotin on a linker: ado-ado)

SSRTRRETQL [HPV16-E6_-2P, P03126]
pKd [1, 26]: 3.79
pKd [2, 26]: below the threshold
pKd [3, 26]: below the threshold
pKd [4, 26]: below the threshold
pKd [5, 26]: below the threshold
pKd [6, 26]: below the threshold
pKd [7, 26]: below the threshold
pKd [8, 26]: below the threshold
pKd [9, 26]: below the threshold
pKd [10, 26]: below the threshold
pKd [11, 26]: below the threshold
pKd [12, 26]: below the threshold
pKd [13, 26]: below the threshold
pKd [14, 26]: below the threshold
pKd [15, 26]: below the threshold
pKd [16, 26]: below the threshold
pKd [17, 26]: below the threshold
pKd [18, 26]: below the threshold
pKd [19, 26]: below the threshold
pKd [20, 26]: below the threshold
pKd [21, 26]: below the threshold
pKd [22, 26]: below the threshold
pKd [23, 26]: below the threshold
pKd [24, 26]: below the threshold
pKd [25, 26]: below the threshold

QSGLYESEEL [MYOT, Q9UBF9]
pKd [1, 27]: 4.44
pKd [2, 27]: below the threshold
pKd [3, 27]: below the threshold
pKd [4, 27]: below the threshold
pKd [5, 27]: below the threshold
pKd [6, 27]: below the threshold
pKd [7, 27]: below the threshold
pKd [8, 27]: below the threshold
pKd [9, 27]: 3.59
pKd [10, 27]: below the threshold
pKd [11, 27]: below the threshold
pKd [12, 27]: below the threshold
pKd [13, 27]: below the threshold
pKd [14, 27]: below the threshold
pKd [15, 27]: below the threshold
pKd [16, 27]: below the threshold
pKd [17, 27]: below the threshold
pKd [18, 27]: below the threshold
pKd [19, 27]: below the threshold
pKd [20, 27]: below the threshold
pKd [21, 27]: below the threshold
pKd [22, 27]: below the threshold
pKd [23, 27]: 4.08
pKd [24, 27]: below the threshold
pKd [25, 27]: below the threshold

PYSESDDDWC [CACNA1A, O00555]
pKd [1, 27]: 3.95
pKd [2, 27]: below the threshold
pKd [3, 27]: below the threshold
pKd [4, 27]: below the threshold
pKd [5, 27]: below the threshold
pKd [6, 27]: below the threshold
pKd [7, 27]: 3.92
pKd [8, 27]: below the threshold
pKd [9, 27]: 3.6
pKd [10, 27]: below the threshold
pKd [11, 27]: 3.53
pKd [12, 27]: below the threshold
pKd [13, 27]: below the threshold
pKd [14, 27]: below the threshold
pKd [15, 27]: below the threshold
pKd [16, 27]: below the threshold
pKd [17, 27]: below the threshold
pKd [18, 27]: below the threshold
pKd [19, 27]: below the threshold
pKd [20, 27]: below the threshold
pKd [21, 27]: below the threshold
pKd [22, 27]: below the threshold
pKd [23, 27]: below the threshold
pKd [24, 27]: 4.39
pKd [25, 27]: below the threshold

AQRARSPSDV [GPR12, P47775]
pKd [1, 27]: below the threshold
pKd [2, 27]: below the threshold
pKd [3, 27]: below the threshold
pKd [4, 27]: 3.85
pKd [5, 27]: below the threshold
pKd [6, 27]: below the threshold
pKd [7, 27]: below the threshold
pKd [8, 27]: below the threshold
pKd [9, 27]: 4.14
pKd [10, 27]: below the threshold
pKd [11, 27]: below the threshold
pKd [12, 27]: below the threshold
pKd [13, 27]: below the threshold
pKd [14, 27]: below the threshold
pKd [15, 27]: below the threshold
pKd [16, 27]: below the threshold
pKd [17, 27]: below the threshold
pKd [18, 27]: below the threshold
pKd [19, 27]: below the threshold
pKd [20, 27]: 4.09
pKd [21, 27]: 3.75
pKd [22, 27]: below the threshold
pKd [23, 27]: 3.65
pKd [24, 27]: below the threshold
pKd [25, 27]: below the threshold
